Assay results published in the supplement of paper PMC10567573.

B1: ZNF511 (parent)
chain: YEHHYHTLHGNVCSFCKRAFPSGH
B2: ZER1 (parent)
chain: PILRLLPQGISPVSQHWATWALYN

Variants of: B1
Test: protein stability index of a GFP-peptide fusion (GPS, HEK-293T) (PSI 1-6); higher = more stable
Conditions: c terminus: a fixed tail appended
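Also: lentivirally expressed fusions sorted by FACS into six bins by GFP to DsRed ratio, PSI derived from sequencing read proportions per bin multiplied by bin number.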

Compared with YEHHYHTLHGNVCSFCKRAFPSPH [G23P], YEHHYHTLHGNVCSFCKRAFPSTH [G23T] is lower in protein stability index: 2.27 for the first, 2.16 for the second.

Compared with YEHHYHTLHGNVCSFCKRAFPSNH [G23N], YEHHYHTLHGNVCSFCKRAFPSIH [G23I] is lower in protein stability index: 2.51 for the first, 1.86 for the second.

Compared with YEHHYHTLHGNVCSFCKRAFPSQH [G23Q], YEHHYHTLHGNVCSFCKRAFPSRH [G23R] is higher in protein stability index: 1.93 for the first, 1.98 for the second.

Compared with YEHHYHTLHGNVCSFCKRAFPSKH [G23K], YEHHYHTLHGNVCSFCKRAFPSLH [G23L] is lower in protein stability index: 2.01 for the first, 1.63 for the second.

Compared with YEHHYHTLHGNVCSFCKRAFPSVH [G23V], YEHHYHTLHGNVCSFCKRAFPSSH [G23S] is higher in protein stability index: 1.61 for the first, 2.7 for the second.

Going from YEHHYHTLHGNVCSFCKRAFPSMH [G23M] to YEHHYHTLHGNVCSFCKRAFPSWH [G23W], the protein stability index falls from 1.92 to 1.62.

Compared with YEHHYHTLHGNVCSFCKRAFPSYH [G23Y], YEHHYHTLHGNVCSFCKRAFPSGM [H24M] is higher in protein stability index: 1.97 for the first, 2.17 for the second.

First: YEHHYHTLHGNVCSFCKRAFPSGD [H24D]
Second: YEHHYHTLHGNVCSFCKRAFPSGQ [H24Q]
The protein stability index of the first is higher: 2.35 for the first, 2.08 for the second.

Going from YEHHYHTLHGNVCSFCKRAFPSGK [H24K] to YEHHYHTLHGNVCSFCKRAFPSGT [H24T], the protein stability index rises from 1.57 to 2.24.

Compared with YEHHYHTLHGNVCSFCKRAFPSGS [H24S], YEHHYHTLHGNVCSFCKRAFPSGP [H24P] is lower in protein stability index: 2.46 for the first, 2.08 for the second.

Going from YEHHYHTLHGNVCSFCKRAFPSGL [H24L] to YEHHYHTLHGNVCSFCKRAFPSGG [H24G], the protein stability index rises from 2.02 to 2.09.

First: YEHHYHTLHGNVCSFCKRAFPSGV [H24V]
Second: YEHHYHTLHGNVCSFCKRAFPSGN [H24N]
The protein stability index of the first is lower: 2.25 for the first, 2.39 for the second.

Compared with YEHHYHTLHGNVCSFCKRAFPSGF [H24F], YEHHYHTLHGNVCSFCKRAFPSGY [H24Y] is lower in protein stability index: 2.5 for the first, 1.65 for the second.

Going from YEHHYHTLHGNVCSFCKRAFPSGA [H24A] to YEHHYHTLHGNVCSFCKRAFPSGW [H24W], the protein stability index rises from 2.13 to 2.43.

First: YEHHYHTLHGNVCSFCKRAFPSGE [H24E]
Second: YEHHYHTLHGNVCSFCKRAFPSGI [H24I]
The protein stability index of the first is higher: 2.57 for the first, 1.78 for the second.

Going from YEHHYHTLHGNVCSFCKRAFPSGC [H24C] to YEHHYHTLHGNVCSFCKRAFPSGR [H24R], the protein stability index rises from 2.07 to 2.08.

Variants of: B2
Test: as above
Conditions: c terminus: a fixed tail appended

Going from PILRLLPQGISFVSQHWATWALYN [P12F] to PILRLLPQGISQVSQHWATWALYN [P12Q], the protein stability index rises from 3.32 to 3.42.

First: PILRLLPQGISNVSQHWATWALYN [P12N]
Second: PILRLLPQGISYVSQHWATWALYN [P12Y]
The protein stability index of the first is lower: 1.85 for the first, 3.44 for the second.

First: PILRLLPQGISHVSQHWATWALYN [P12H]
Second: PILRLLPQGISVVSQHWATWALYN [P12V]
The protein stability index of the first is higher: 3.2 for the first, 2.1 for the second.

First: PILRLLPQGISAVSQHWATWALYN [P12A]
Second: PILRLLPQGISIVSQHWATWALYN [P12I]
The protein stability index of the first is lower: 2.33 for the first, 3.2 for the second.

Compared with PILRLLPQGISKVSQHWATWALYN [P12K], PILRLLPQGISPASQHWATWALYN [V13A] is higher in protein stability index: 2.87 for the first, 4.06 for the second.

Going from PILRLLPQGISPWSQHWATWALYN [V13W] to PILRLLPQGISPLSQHWATWALYN [V13L], the protein stability index rises from 1.54 to 2.34.

First: PILRLLPQGISPISQHWATWALYN [V13I]
Second: PILRLLPQGISPFSQHWATWALYN [V13F]
The protein stability index of the first is lower: 1.68 for the first, 1.88 for the second.

Compared with PILRLLPQGISPSSQHWATWALYN [V13S], PILRLLPQGISPCSQHWATWALYN [V13C] is lower in protein stability index: 2.54 for the first, 2.48 for the second.

Compared with PILRLLPQGISPDSQHWATWALYN [V13D], PILRLLPQGISPTSQHWATWALYN [V13T] is higher in protein stability index: 2.84 for the first, 3.01 for the second.

First: PILRLLPQGISPGSQHWATWALYN [V13G]
Second: PILRLLPQGISPNSQHWATWALYN [V13N]
The protein stability index of the first is higher: 1.87 for the first, 1.8 for the second.

Going from PILRLLPQGDSPVSQHWATWALYN [I10D] to PILRLLPQGHSPVSQHWATWALYN [I10H], the protein stability index rises from 1.76 to 2.79.

Compared with PILRLLPQGLSPVSQHWATWALYN [I10L], PILRLLPQGESPVSQHWATWALYN [I10E] is higher in protein stability index: 2.61 for the first, 3.31 for the second.

Going from PILRLLPQGMSPVSQHWATWALYN [I10M] to PILRLLPQGNSPVSQHWATWALYN [I10N], the protein stability index falls from 3.55 to 2.41.

First: PILRLLPQGISPVCQHWATWALYN [S14C]
Second: PILRLLPQGISPVTQHWATWALYN [S14T]
The protein stability index of the first is higher: 2.98 for the first, 1.11 for the second.

First: PILRLLPQGISPVYQHWATWALYN [S14Y]
Second: PILRLLPQGISPVQQHWATWALYN [S14Q]
The protein stability index of the first is higher: 2.6 for the first, 2.12 for the second.

Compared with PILRLLPQGISPVVQHWATWALYN [S14V], PILRLLPQGISPVKQHWATWALYN [S14K] is lower in protein stability index: 2.62 for the first, 1.43 for the second.

First: PILRLEPQGISPVSQHWATWALYN [L6E]
Second: PILRLCPQGISPVSQHWATWALYN [L6C]
The protein stability index of the first is lower: 2.53 for the first, 2.88 for the second.

First: PILRLRPQGISPVSQHWATWALYN [L6R]
Second: PILRLYPQGISPVSQHWATWALYN [L6Y]
The protein stability index of the first is higher: 3.26 for the first, 2.65 for the second.

Compared with PILRLQPQGISPVSQHWATWALYN [L6Q], PILRLFPQGISPVSQHWATWALYN [L6F] is higher in protein stability index: 1.46 for the first, 3.51 for the second.

Going from PILRLPPQGISPVSQHWATWALYN [L6P] to PILRLDPQGISPVSQHWATWALYN [L6D], the protein stability index falls from 2.83 to 2.56.

First: PIDRLLPQGISPVSQHWATWALYN [L3D]
Second: PIERLLPQGISPVSQHWATWALYN [L3E]
The protein stability index of the first is higher: 3.05 for the first, 1.36 for the second.

Going from PIPRLLPQGISPVSQHWATWALYN [L3P] to PIWRLLPQGISPVSQHWATWALYN [L3W], the protein stability index falls from 1.04 to 1.02.

Compared with PITRLLPQGISPVSQHWATWALYN [L3T], PIVRLLPQGISPVSQHWATWALYN [L3V] is lower in protein stability index: 2.52 for the first, 1.78 for the second.

Compared with PIRRLLPQGISPVSQHWATWALYN [L3R], PIHRLLPQGISPVSQHWATWALYN [L3H] is lower in protein stability index: 1.95 for the first, 1.75 for the second.

First: PINRLLPQGISPVSQHWATWALYN [L3N]
Second: PIQRLLPQGISPVSQHWATWALYN [L3Q]
The protein stability index of the first is higher: 2.54 for the first, 1.62 for the second.

Compared with PIGRLLPQGISPVSQHWATWALYN [L3G], PIYRLLPQGISPVSQHWATWALYN [L3Y] is lower in protein stability index: 1.44 for the first, 1.06 for the second.

First: PIIRLLPQGISPVSQHWATWALYN [L3I]
Second: PIARLLPQGISPVSQHWATWALYN [L3A]
The protein stability index of the first is lower: 1.5 for the first, 3.7 for the second.

First: PNLRLLPQGISPVSQHWATWALYN [I2N]
Second: PELRLLPQGISPVSQHWATWALYN [I2E]
The protein stability index of the first is lower: 1.5 for the first, 2.45 for the second.

First: PRLRLLPQGISPVSQHWATWALYN [I2R]
Second: PKLRLLPQGISPVSQHWATWALYN [I2K]
The protein stability index of the first is higher: 3.12 for the first, 2.04 for the second.

Going from PQLRLLPQGISPVSQHWATWALYN [I2Q] to PTLRLLPQGISPVSQHWATWALYN [I2T], the protein stability index rises from 1.26 to 2.92.

Compared with PHLRLLPQGISPVSQHWATWALYN [I2H], PALRLLPQGISPVSQHWATWALYN [I2A] is higher in protein stability index: 1.17 for the first, 2.46 for the second.
